Measurements reported in PMC4757414, “Evidences of Changes in Surface Electrostatic Charge Distribution during Stabilization of HPV16 Virus-Like Particles” (PLoS ONE, 2016).

Target: the molecule itself
Assay: static light scattering; Debye plot (Zimm equation) of purified HPV16 VLPs in dilute solution, initial (0 h) and final (48 h) states; T = 298 K; 0.5 M NaCl, 50 mM sodium citrate, 1 mM CaCl2, pH 6

B1: HPV16 L1 protein (assembled into HPV16 virus-like particles) (natural protein)
chain: MSLWLPSEATVYLPPVPVSKVVSTDEYVARTNIYYHAGTSRLLAVGHPYFPIKKPNNNKILVPKVSGLQYRVFRIHLPDPNKFGFPDTSFYNPDTQRLVWACVGVEVGRGQPLGVGISGHPLLNKLDDTENASAYAANAGVDNRECISMDYKQTQLCLIGCKPPIGEHWGKGSPCTNVAVNPGDCPPLELINTVIQDGDMVDTGFGAMDFTTLQANKSEVPLDICTSICKYPDYIKMVSEPYGDSLFFYLRREQMFVRHLFNRAGAVGENVPDDLYIKGSGSTANLASSNYFPTPSGSMVTSDAQIFNKPYWLQRAQGHNNGICWGNQLFVTVVDTTRSTNMSLCAAISTSETTYKNTNFKEYLRHGEEYDLQFIFQLCKITLTADVMTYIHSMNSTILEDWNFGLQPPPGGTLEDTYRFVTSQAIACQKHTPPAPKEDPLKKYTFWEVNLKEKFSADLDQFPLGRKFLLQAGLKAKPKFTLGKRKATPTTSSTSTTAKRKKRKL
notes: major capsid protein L1 (~55 kDa) of human papillomavirus type 16; also called HPV L1; HPV16 VLPs; source: insect cells infected with HPV L1 expressing baculovirus, purified (chromatography and filtration, at least 95% purity); provided by Sino Biological, Inc
- binding result: binds
